The test deals with TAMRA-APP12 (peptide S1) (TAMRA label (position not given); C-terminal amide). In words: fluorescence polarisation.

This note sets out measurements from PMC10065947 (Nature chemical biology, 2022).

B1: naïve fusion of WT Fyn-SH3 and WT COMT (enzyme)
chain: not shown
One may read the Kd as the equilibrium constant for the complex coming apart. The molecule B1 gave a Kd of 330 nM.
